Reference: PMC4036362, “Normal Activation of Discoidin Domain Receptor 1 Mutants with Disulfide Cross-links, Insertions, or Deletions in the Extracellular Juxtamembrane Region” (The Journal of Biological Chemistry, 2014)

Target: the molecule itself
Assay: cross-linking; disulfide cross-linking of introduced cysteines in transiently transfected HEK293 cells, untreated or with 10 ug/ml collagen I for 90 min at 37 °C; lysis in 1% Nonidet P-40 buffer with NEM; nonreducing SDS-PAGE on 5% gels, Western blot with anti-DDR1; efficiency as percent dimeric of total DDR1

Protein | dimerization efficiency (percent dimeric of total DDR1) [%] | stoichiometry N
DDR1 residue 415 to cysteine (in the C287S background) (receptor, human, UniProt Q08345 19-913, looked up, discoidin domain receptor 1, isoform DDR1b, human; full-length cDNA in pRK5; The text gives only the range V408C to A417C (10 single mutants); also called one of the 10 mutants V408C to A417C; source: HEK293, transiently transfected, in lysate) DADMKGHFDPAKCRYALGMQDRTIPDSDISASSSWSDSTAARHSRLESSDGDGAWCPAGSVFPKEEEYLQVDLQRLHLVALVGTQGRHAGGLGKEFSRSYRLRYSRDGRRWMGWKDRWGQEVISGNEDPEGVVLKDLGPPMVARLVRFYPRADRVMSVCLRVELYGCLWRDGLLSYTAPVGQTMYLSEAVYLNDSTYDGHTVGGLQYGGLGQLADGVVGLDDFRKSQELRVWPGYDYVGWSNHSFSSGYVEMEFEFDRLRAFQAMQVHSNNMHTLGARLPGGVECRFRRGPAMAWEGEPMRHNLGGNLGDPRARAVSVPLGGRVARFLQCRFLFAGPWLLFSEISFISDVVNNSSPALGGTFPPAPWWPPGPPPTNFSSLELEPRGQQPVAKAEGSCTAILIGCLVAIILLLLLIIALMLWRLHWRRLLSKAERRVLEEELTVHLSVPGDTILINNRPGPREPPPYQEPRPRGNPPHSAPCVPNGSALLLSNPAYRLLLATYARPPRGPGPPTPAWAKPTNTQAYSGDYMEPEKPGAPLLPPPPQNSVPHYAEADIVTLQGVTGGNTYAVPALPPGAVGDGPPRVDFPRSRLRFKEKLGEGQFGEVHLCEVDSPQDLVSLDFPLNVRKGHPLLVAVKILRPDATKNARNDFLKEVKIMSRLKDPNIIRLLGVCVQDDPLCMITDYMENGDLNQFLSAHQLEDKAAEGAPGDGQAAQGPTISYPMLLHVAAQIASGMRYLATLNFVHRDLATRNCLVGENFTIKIADFGMSRNLYAGDYYRVQGRAVLPIRWMAWECILMGKFTTASDVWAFGVTLWEVLMLCRAQPFGQLTDEQVIENAGEFFRDQGRQVYLSRPPACPQGLYELMLRCWSRESEQRPPFSQLHRFLAEDALNTV | > 70 | 
DDR1 G421C (in the C287S background) (receptor, human, UniProt Q08345 19-913, looked up, discoidin domain receptor 1, isoform DDR1b, human; full-length cDNA in pRK5; source: HEK293, transiently transfected, in lysate) DADMKGHFDPAKCRYALGMQDRTIPDSDISASSSWSDSTAARHSRLESSDGDGAWCPAGSVFPKEEEYLQVDLQRLHLVALVGTQGRHAGGLGKEFSRSYRLRYSRDGRRWMGWKDRWGQEVISGNEDPEGVVLKDLGPPMVARLVRFYPRADRVMSVCLRVELYGCLWRDGLLSYTAPVGQTMYLSEAVYLNDSTYDGHTVGGLQYGGLGQLADGVVGLDDFRKSQELRVWPGYDYVGWSNHSFSSGYVEMEFEFDRLRAFQAMQVHSNNMHTLGARLPGGVECRFRRGPAMAWEGEPMRHNLGGNLGDPRARAVSVPLGGRVARFLQCRFLFAGPWLLFSEISFISDVVNNSSPALGGTFPPAPWWPPGPPPTNFSSLELEPRGQQPVAKAEGSPTAILICCLVAIILLLLLIIALMLWRLHWRRLLSKAERRVLEEELTVHLSVPGDTILINNRPGPREPPPYQEPRPRGNPPHSAPCVPNGSALLLSNPAYRLLLATYARPPRGPGPPTPAWAKPTNTQAYSGDYMEPEKPGAPLLPPPPQNSVPHYAEADIVTLQGVTGGNTYAVPALPPGAVGDGPPRVDFPRSRLRFKEKLGEGQFGEVHLCEVDSPQDLVSLDFPLNVRKGHPLLVAVKILRPDATKNARNDFLKEVKIMSRLKDPNIIRLLGVCVQDDPLCMITDYMENGDLNQFLSAHQLEDKAAEGAPGDGQAAQGPTISYPMLLHVAAQIASGMRYLATLNFVHRDLATRNCLVGENFTIKIADFGMSRNLYAGDYYRVQGRAVLPIRWMAWECILMGKFTTASDVWAFGVTLWEVLMLCRAQPFGQLTDEQVIENAGEFFRDQGRQVYLSRPPACPQGLYELMLRCWSRESEQRPPFSQLHRFLAEDALNTV |  | ~4
DDR1 residue 418 to cysteine (in the C287S background) (receptor, human, UniProt Q08345 19-913, looked up, discoidin domain receptor 1, isoform DDR1b, human; full-length cDNA in pRK5; source: HEK293, transiently transfected, in lysate) DADMKGHFDPAKCRYALGMQDRTIPDSDISASSSWSDSTAARHSRLESSDGDGAWCPAGSVFPKEEEYLQVDLQRLHLVALVGTQGRHAGGLGKEFSRSYRLRYSRDGRRWMGWKDRWGQEVISGNEDPEGVVLKDLGPPMVARLVRFYPRADRVMSVCLRVELYGCLWRDGLLSYTAPVGQTMYLSEAVYLNDSTYDGHTVGGLQYGGLGQLADGVVGLDDFRKSQELRVWPGYDYVGWSNHSFSSGYVEMEFEFDRLRAFQAMQVHSNNMHTLGARLPGGVECRFRRGPAMAWEGEPMRHNLGGNLGDPRARAVSVPLGGRVARFLQCRFLFAGPWLLFSEISFISDVVNNSSPALGGTFPPAPWWPPGPPPTNFSSLELEPRGQQPVAKAEGSPTACLIGCLVAIILLLLLIIALMLWRLHWRRLLSKAERRVLEEELTVHLSVPGDTILINNRPGPREPPPYQEPRPRGNPPHSAPCVPNGSALLLSNPAYRLLLATYARPPRGPGPPTPAWAKPTNTQAYSGDYMEPEKPGAPLLPPPPQNSVPHYAEADIVTLQGVTGGNTYAVPALPPGAVGDGPPRVDFPRSRLRFKEKLGEGQFGEVHLCEVDSPQDLVSLDFPLNVRKGHPLLVAVKILRPDATKNARNDFLKEVKIMSRLKDPNIIRLLGVCVQDDPLCMITDYMENGDLNQFLSAHQLEDKAAEGAPGDGQAAQGPTISYPMLLHVAAQIASGMRYLATLNFVHRDLATRNCLVGENFTIKIADFGMSRNLYAGDYYRVQGRAVLPIRWMAWECILMGKFTTASDVWAFGVTLWEVLMLCRAQPFGQLTDEQVIENAGEFFRDQGRQVYLSRPPACPQGLYELMLRCWSRESEQRPPFSQLHRFLAEDALNTV |  | ~4
DDR1 A417C (in the C287S background) (receptor, human, UniProt Q08345 19-913, looked up, discoidin domain receptor 1, isoform DDR1b, human; full-length cDNA in pRK5; source: HEK293, transiently transfected, in lysate) DADMKGHFDPAKCRYALGMQDRTIPDSDISASSSWSDSTAARHSRLESSDGDGAWCPAGSVFPKEEEYLQVDLQRLHLVALVGTQGRHAGGLGKEFSRSYRLRYSRDGRRWMGWKDRWGQEVISGNEDPEGVVLKDLGPPMVARLVRFYPRADRVMSVCLRVELYGCLWRDGLLSYTAPVGQTMYLSEAVYLNDSTYDGHTVGGLQYGGLGQLADGVVGLDDFRKSQELRVWPGYDYVGWSNHSFSSGYVEMEFEFDRLRAFQAMQVHSNNMHTLGARLPGGVECRFRRGPAMAWEGEPMRHNLGGNLGDPRARAVSVPLGGRVARFLQCRFLFAGPWLLFSEISFISDVVNNSSPALGGTFPPAPWWPPGPPPTNFSSLELEPRGQQPVAKAEGSPTCILIGCLVAIILLLLLIIALMLWRLHWRRLLSKAERRVLEEELTVHLSVPGDTILINNRPGPREPPPYQEPRPRGNPPHSAPCVPNGSALLLSNPAYRLLLATYARPPRGPGPPTPAWAKPTNTQAYSGDYMEPEKPGAPLLPPPPQNSVPHYAEADIVTLQGVTGGNTYAVPALPPGAVGDGPPRVDFPRSRLRFKEKLGEGQFGEVHLCEVDSPQDLVSLDFPLNVRKGHPLLVAVKILRPDATKNARNDFLKEVKIMSRLKDPNIIRLLGVCVQDDPLCMITDYMENGDLNQFLSAHQLEDKAAEGAPGDGQAAQGPTISYPMLLHVAAQIASGMRYLATLNFVHRDLATRNCLVGENFTIKIADFGMSRNLYAGDYYRVQGRAVLPIRWMAWECILMGKFTTASDVWAFGVTLWEVLMLCRAQPFGQLTDEQVIENAGEFFRDQGRQVYLSRPPACPQGLYELMLRCWSRESEQRPPFSQLHRFLAEDALNTV |  | ~4
DDR1 residue 419 to cysteine (in the C287S background) (receptor, human, UniProt Q08345 19-913, looked up, discoidin domain receptor 1, isoform DDR1b, human; full-length cDNA in pRK5; also called TM cysteine mutant, residue 419; source: HEK293, transiently transfected, in lysate) DADMKGHFDPAKCRYALGMQDRTIPDSDISASSSWSDSTAARHSRLESSDGDGAWCPAGSVFPKEEEYLQVDLQRLHLVALVGTQGRHAGGLGKEFSRSYRLRYSRDGRRWMGWKDRWGQEVISGNEDPEGVVLKDLGPPMVARLVRFYPRADRVMSVCLRVELYGCLWRDGLLSYTAPVGQTMYLSEAVYLNDSTYDGHTVGGLQYGGLGQLADGVVGLDDFRKSQELRVWPGYDYVGWSNHSFSSGYVEMEFEFDRLRAFQAMQVHSNNMHTLGARLPGGVECRFRRGPAMAWEGEPMRHNLGGNLGDPRARAVSVPLGGRVARFLQCRFLFAGPWLLFSEISFISDVVNNSSPALGGTFPPAPWWPPGPPPTNFSSLELEPRGQQPVAKAEGSPTAICIGCLVAIILLLLLIIALMLWRLHWRRLLSKAERRVLEEELTVHLSVPGDTILINNRPGPREPPPYQEPRPRGNPPHSAPCVPNGSALLLSNPAYRLLLATYARPPRGPGPPTPAWAKPTNTQAYSGDYMEPEKPGAPLLPPPPQNSVPHYAEADIVTLQGVTGGNTYAVPALPPGAVGDGPPRVDFPRSRLRFKEKLGEGQFGEVHLCEVDSPQDLVSLDFPLNVRKGHPLLVAVKILRPDATKNARNDFLKEVKIMSRLKDPNIIRLLGVCVQDDPLCMITDYMENGDLNQFLSAHQLEDKAAEGAPGDGQAAQGPTISYPMLLHVAAQIASGMRYLATLNFVHRDLATRNCLVGENFTIKIADFGMSRNLYAGDYYRVQGRAVLPIRWMAWECILMGKFTTASDVWAFGVTLWEVLMLCRAQPFGQLTDEQVIENAGEFFRDQGRQVYLSRPPACPQGLYELMLRCWSRESEQRPPFSQLHRFLAEDALNTV |  | ~4
DDR1 residue 420 to cysteine (in the C287S background) (receptor, human, UniProt Q08345 19-913, looked up, discoidin domain receptor 1, isoform DDR1b, human; full-length cDNA in pRK5; also called TM cysteine mutant, residue 420; source: HEK293, transiently transfected, in lysate) DADMKGHFDPAKCRYALGMQDRTIPDSDISASSSWSDSTAARHSRLESSDGDGAWCPAGSVFPKEEEYLQVDLQRLHLVALVGTQGRHAGGLGKEFSRSYRLRYSRDGRRWMGWKDRWGQEVISGNEDPEGVVLKDLGPPMVARLVRFYPRADRVMSVCLRVELYGCLWRDGLLSYTAPVGQTMYLSEAVYLNDSTYDGHTVGGLQYGGLGQLADGVVGLDDFRKSQELRVWPGYDYVGWSNHSFSSGYVEMEFEFDRLRAFQAMQVHSNNMHTLGARLPGGVECRFRRGPAMAWEGEPMRHNLGGNLGDPRARAVSVPLGGRVARFLQCRFLFAGPWLLFSEISFISDVVNNSSPALGGTFPPAPWWPPGPPPTNFSSLELEPRGQQPVAKAEGSPTAILCGCLVAIILLLLLIIALMLWRLHWRRLLSKAERRVLEEELTVHLSVPGDTILINNRPGPREPPPYQEPRPRGNPPHSAPCVPNGSALLLSNPAYRLLLATYARPPRGPGPPTPAWAKPTNTQAYSGDYMEPEKPGAPLLPPPPQNSVPHYAEADIVTLQGVTGGNTYAVPALPPGAVGDGPPRVDFPRSRLRFKEKLGEGQFGEVHLCEVDSPQDLVSLDFPLNVRKGHPLLVAVKILRPDATKNARNDFLKEVKIMSRLKDPNIIRLLGVCVQDDPLCMITDYMENGDLNQFLSAHQLEDKAAEGAPGDGQAAQGPTISYPMLLHVAAQIASGMRYLATLNFVHRDLATRNCLVGENFTIKIADFGMSRNLYAGDYYRVQGRAVLPIRWMAWECILMGKFTTASDVWAFGVTLWEVLMLCRAQPFGQLTDEQVIENAGEFFRDQGRQVYLSRPPACPQGLYELMLRCWSRESEQRPPFSQLHRFLAEDALNTV |  | ~4
